“Also recorded” adds a separate entry of the source.
B1: PEG-BCT-100: pegylated recombinant human arginase I (SEQ ID NO.1, or SEQ ID NO.3 with six histidines), about 6-12 PEG molecules per arginase (protein, UniProt P05089 1-322, looked up)
Arginase-1: MSAKSRTIGIIGAPFSKGQPRGGVEEGPTVLRKAGLLEKLKEQECDVKDYGDLPFADIPNDSPFQIVKNPRSVGKASEQLAGKVAEVKKNGRISLVLGGDHSLAIGSISGHARVHPDLGVIWVDAHTDINTPLTTTSGNLHGQPVSFLLKELKGKIPDVPGFSWVTPCISAKDIVYIGLRDVDPGEHYILKTLGIKYFSMTEVDRLGIGKVMEETLSYLLGRKKRPIHLSFDVDGLDPSFTPATGTPVVGGLTYREGLYITEEIYKTGLLSGLDIMEVNPSLGKTPEEVTRTVNTAVAITLACFGLAREGNHKPIDYLNPPK
modifications: PEG, about 6-12 per arginase; optional His6 tag

Tests used:
[1] = system: Kasumi-1 leukemia xenograft; assay: Kasumi-1 leukemia xenograft model; assay type: in vivo, mouse; details: Kasumi-1 xenograft; for anti-tumour effect: PEG-BCT-100 20 mg/kg IV twice a week, DFMO 2% w/v in drinking water
Procedure: (§1) In one example embodiment, the Kasumi-1 tumour cells are maintained in vitro as a suspension culture in RPMI1640 medium supplemented with 10% heat inactivated fetal bovine serum at 37° C. in an atmosphere of 5% CO2 in air. The tumour cells are routinely sub-cultured twice weekly. The cells growing in an exponential growth phase are harvested and counted for tumour inoculation.
All mice are γ-irradiated (200 rad) for 24 h before tumour cell injection. Kasumi-1 tumour cells (1×10^7) in 0.2 ml of PBS are mixed with cultrex in a 1:1 ratio. Each mouse is inoculated subcutaneously at the right flank region with the tumour cells suspension for tumour development. The treatments start when the mean tumour size reached 114 mm^3. The date of tumour cell inoculation is denoted as day 0.
(§2) Four treatment groups of animals, with eight animals in each group, are tested. Control group (negative control) receives physiological saline, and the three treatment groups respectively receive 20 mg/kg of PEG-BCT-100 alone, 2% w/v DFMO in drinking water, and combination of 20 mg/kg of PEG-BCT-100 and 2% w/v DFMO. PEG-BCT-100 is administered intravenously, twice a week, until euthanization while DFMO is supplied in drinking water at 2% w/v.

[2] = system: CAPAN-1 pancreatic cancer xenograft; assay: CAPAN-1 pancreatic cancer xenograft model; assay type: in vivo, mouse; details: CAPAN-1 xenograft; PEG-BCT-100 20 mg/kg IV twice a week; DFMO 2% w/v in drinking water
Procedure: as §1, with “CAPAN-1” for “Kasumi-1”, “vitro” for “vitro as a suspension”, “EMEM” for “RPMI1640”
Each mouse is inoculated subcutaneously at the right flank region with CAPAN-1 tumour cells (5×10^6) in 0.1 ml of PBS (1:1 Matrigel) for tumour development. The treatments start when the mean tumour size reaches 119 mm^3. The date of tumour cell inoculation is denoted as day 0.
as §2

[3] = system: Hep 3B hepatocellular carcinoma xenograft; assay: Hep 3B hepatocellular carcinoma xenograft model; assay type: in vivo, mouse; details: Hep 3B xenograft; PEG-BCT-100 20 mg/kg IV twice a week; DFMO 2% w/v in drinking water
Procedure: as §1, with “Hep 3B” for “Kasumi-1”, “vitro” for “vitro as a suspension”, “EMEM” for “RPMI1640”
Each mouse is inoculated subcutaneously at the right flank region with Hep 3B tumour cells (5×10^6) in 0.1 ml of PBS (1:1 Matrigel) for tumour development. The treatments start when the mean tumour size reaches 119 mm^3. The date of tumour cell inoculation is denoted as day 0.
as §2

[4] = system: SU-DHL-10 B cell lymphoma xenograft; assay: SU-DHL-10 B cell lymphoma xenograft model; assay type: in vivo, mouse; details: SU-DHL-10 xenograft; PEG-BCT-100 20 mg/kg IV twice a week; DFMO 2% w/v in drinking water
Procedure: as §1, with “SU-DHL-10 human lymphoma” for “the Kasumi-1 tumour”, “vitro” for “vitro as a suspension”, “20%” for “10% heat inactivated”, “cells” for “cells growing”
One day before tumour inoculation, all mice are sub-lethally irradiated with 60Co (200 rad). Each mouse is inoculated subcutaneously at the right flank region with SU-DHL-10 tumour cells (1×10^7) in 0.1 ml of PBS/Matrigel (1:1) for tumour development. The treatments start when the mean tumour volume reached 116 mm^3. The date of tumour cell inoculation is denoted as day 0.
as §2, with “saline,” for “saline, and the three treatment groups respectively receive”

[5] = system: H1650 lung adenocarcinoma xenografts; assay: H1650 lung adenocarcinoma xenograft; assay type: in vivo, BALB/c nude mice; details: for median survival: PEG-BCT-100 20 mg/kg IP twice a week
Procedure: (§3) In one example embodiment, ten million lung adenocarcinoma cells from cell lines H1650, H1975, and HCC4006 are engrafted subcutaneously in BALB/cnude mice (4 weeks old with body weight of 10-14 g). Body weight, clinical signs and survival times are recorded.
(§4) Two groups of the mice, with eight mice in each group, are tested. Control group (negative control) receives physiological saline and treatment group receives 20 mg/kg of PEG-BCT-100. PEG-BCT-100 is administered via intraperitoneal (IP) injection, twice weekly, until euthanization.
(§5) In one example embodiment, ten million lung adenocarcinoma cells from cell lines H1650, H1975 and HCC4006 are engrafted subcutaneously in BALB/cnude mice (4 weeks old with body weight of 10-14 g). Body weight, clinical signs and survival times are recorded.
as §2, with “Four” for “Four treatment”, “the mice,” for “animals,”, “mice” for “animals”, “intraperitoneally,” for “intravenously,”

K-562 leukemia xenograft = K-562 leukemia xenograft model; assay type: in vivo, mouse; details: K-562 xenograft; PEG-BCT-100 20 mg/kg IV twice a week; DFMO 2% w/v in drinking water
Procedure: as §1, with “K-562” for “Kasumi-1”
Each mouse is inoculated subcutaneously at the right flank region with K-562 tumour cells (5×10^6) in 0.1 ml of PBS/Matrigel (1:1) for tumour development. The treatments start when the mean tumour size reaches 125 mm^3. The date of tumour cell inoculation is denoted as day 0.
as §2

[6] = system: H1975 lung adenocarcinoma xenografts; assay: H1975 lung adenocarcinoma xenograft; assay type: in vivo, BALB/c nude mice; details: for median survival: PEG-BCT-100 20 mg/kg IP twice a week
Procedure: as §3, §4, §5
as §2, with “Four” for “Four treatment”, “the mice,” for “animals,”, “mice” for “animals”, “intraperitoneally,” for “intravenously,”

[7] = PEG-BCT-100 20 mg/kg IP twice weekly, DFMO 2% w/v in drinking water, 20 mg/kg
[8] = PEG-BCT-100 20 mg/kg vs control arm
[9] = PEG-BCT-100 20 mg/kg vs control arm, 20 mg/kg

Row | Molecule | TGI ([1]; 2% DFMO in drinking water) | anti-tumour effect [1] | anti-tumour effect [2] | anti-tumour effect [3] | anti-tumour effect [4] | median survival ([5]; DFMO 2% w/v in drinking water) | anti-tumour effect (K-562 leukemia xenograft) | median survival ([6]; DFMO 2% w/v in drinking water) | tumour growth [5, 7] | in vivo ASS1 expression (Western blot) [5, 8] | in vivo ODC expression (Western blot) [5, 9] | tumour growth [6, 7] | in vivo ASS1 expression (Western blot) [6, 8] | in vivo ODC expression (Western blot) [6, 9]
1 | NCCC[C@](N)(C(=O)O)C(F)F [DFMO, α-difluoromethylornithine, reference compound] | 45% | significant anti-tumour activity | no significant anti-tumour effect | significant anti-tumour effect | no significant anti-tumour effect | 17 days | no significant anti-tumour effect | 18 days | – | – | – | – | – | –
2 | B1 | – | no significant anti-tumour effect | no significant anti-tumour effect | does not produce a significant anti-tumour effect | slightly promotes SU-DHL-10 tumour growth | 10 days | no significant anti-tumour effect | 15 days | induces lung adenocarcinoma proliferation; also recorded: promotes tumour growth | remains unchanged | increases; also recorded: over-expressed; also recorded: upregulated | induces lung adenocarcinoma proliferation; also recorded: promotes tumour growth | decreases | increases; also recorded: over-expressed; also recorded: upregulated
